Experiments:
PC12 cells = assay: PC12 cell neurite outgrowth in response to NGF; assay type: cell-based
Experimental: To assess the effect of p75^NTR constructs (FIG. 2) or c29 peptide on TrkA-mediated neuritogenesis, transfected PC12 cells were grown in the presence of 100 ng/ml NGF for 3 days, with fresh medium and NGF treatments added on day 2. Cells were then imaged live on an Olympus (IX81) microscope fitted with a CO2 atmospheric chamber, using analySIS software. Four random images of 80-100 cells were taken for each treatment condition and images were determined by measuring polygon neurite length of all cells in each image. Data analysis was performed using Graphpad PRISM.
Once PC12 cells are fully differentiated, they become dependent on NGF for survival (Greene, 1978), but can survive if grown in the presence of lower concentrations of NGF (Greene and Tischler, 1976). To determine if c29 could potentiate TrkA-mediated signals, PC12 cells were cultured in the presence of NGF concentrations ranging from 1-100 ng/ml for 5 days, following serum starvation and pre-incubation with c29, scrambled control peptide or no peptide (FIG. 5A). […] Peptides (1 μM) were added to the cultures every 48 hours at the time of NGF addition and medium exchange.

TrkAK538A = biological target: T1, TrkAK538A (Homo sapiens, UniProt P04629, K544A); assay: NGF-FITC binding by flow cytometry, TrkAK538A-transfected HEK293 cells
T1 construct: expressed in transfected cells; host or cells: HEK293
T1 sequence (P04629 33-796 K544A): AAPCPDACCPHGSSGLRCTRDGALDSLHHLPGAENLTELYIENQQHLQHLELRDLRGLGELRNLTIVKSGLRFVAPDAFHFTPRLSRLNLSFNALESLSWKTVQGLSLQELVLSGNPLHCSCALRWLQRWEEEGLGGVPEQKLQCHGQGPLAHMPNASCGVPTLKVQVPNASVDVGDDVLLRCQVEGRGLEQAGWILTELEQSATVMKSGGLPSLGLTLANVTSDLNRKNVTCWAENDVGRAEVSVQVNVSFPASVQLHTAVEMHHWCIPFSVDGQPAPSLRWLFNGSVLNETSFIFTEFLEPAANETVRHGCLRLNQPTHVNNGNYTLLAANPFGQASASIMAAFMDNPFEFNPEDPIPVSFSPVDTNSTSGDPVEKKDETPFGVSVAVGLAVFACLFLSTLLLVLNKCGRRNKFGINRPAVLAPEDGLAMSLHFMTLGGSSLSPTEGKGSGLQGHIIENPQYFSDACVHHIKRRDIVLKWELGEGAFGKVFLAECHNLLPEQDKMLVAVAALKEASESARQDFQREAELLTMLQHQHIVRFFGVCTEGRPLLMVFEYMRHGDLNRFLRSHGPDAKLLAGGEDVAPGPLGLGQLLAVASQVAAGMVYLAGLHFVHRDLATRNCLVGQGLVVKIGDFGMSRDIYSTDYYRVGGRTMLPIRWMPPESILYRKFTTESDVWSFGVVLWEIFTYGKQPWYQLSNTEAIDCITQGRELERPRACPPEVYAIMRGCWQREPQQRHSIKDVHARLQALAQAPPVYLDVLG
T1 sequence (P01139 122-239 partner limits assumed): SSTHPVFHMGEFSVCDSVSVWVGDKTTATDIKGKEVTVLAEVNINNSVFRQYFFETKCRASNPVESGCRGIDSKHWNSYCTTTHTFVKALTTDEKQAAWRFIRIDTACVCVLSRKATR
Experimental: The NGF was conjugated to FITC by standard methods and detailed flow cytometry acquisition and analysis. For NGF-FITC conjugation 400 μg βNGF in 200 μl pH 8.5 NaHCO3 buffer was mixed with 5-10 μl of 10 mg/ml FITC in 100 μl DMSO for 10 hours at 4° C. on an orbital shaker set to 100 rpm. The excess FITC was removed by dialysis against 3 changes of 5 L of 10 mM Tris, 150 mM NaCl, 0.2% acetic acid, pH 8.2 for 24 hours at 4° C. Conjugate F/P characterization was determined by measuring absorbance at 280 nm and 495 nm according to manufacturer's instructions. Biological activity of the NGF-FITC conjugate was tested by performing PC12 cell neurite outgrowth assays unlabelled NGF, and comparing the levels of neuritogenesis. NGF-FITC conjugates were used within 4 weeks of synthesis.
For the flow cytometry NGF binding assays, fluorescence cell parameters of at least 20,000 events for PC12 cells and 100,000 events for HEK293 cells were acquired by flow cytometry list mode and measurements were performed on a single cell basis (with compensation for double event counting). Dead cells and debris were gated out of the analysis on the basis of forward scatter fluorescence, and mean, median and maximal fluorescence values of the gated cell populations were analysed using FACS Diva Software (Becton-Dickinson Biosciences) and FACS Express Software (Becton-Dickinson Biosciences).
(§1) Background fluorescence of HEK293 cells was non-transfected cells (±c29 or scrambled peptide treatment) treated with 26 nM NGF-FITC. For PC12 cells, the control population was cells that had not been treated with NGF-FITC. Analysis of real-time NGF-FITC receptor binding experiments was performed on 550,000-600,000 cells at 4° C. in serum free NB medium and binding kinetics were calculated from raw data files compressed to 50,000 binding events using FlowJo and MatLab Software. Data was plotted with the use of GraphPad Prism.
(§2) Only NGF-FITC preparations that promoted equivalent neurite outgrowth of PC12 cells to that of unlabelled NGF were used in binding experiments. To investigate NGF binding, PC12 or transfected HEK293 cells were serum starved for 4 hours, harvested, washed with Dulbecco's Modified Eagle Medium (DMEM), and counted. When used, c29 or scrambled peptide were added to cultures for the third hour of the serum starvation procedure. 1×10^7 cells/ml suspended in 500 μl of serum-free DMEM were incubated with 26 nM NGF-FITC on ice for 60 minutes before analysis. For binding competition assays, following 1 hour in NGF-FITC, cells were washed with ice-cold PBS containing 0.1% normal bovine serum and incubated on ice with unlabeled NGF at concentrations ranging from 100 pM to 10 μM for 30 minutes, then washed twice in PBS before being analysed on a BD Flow Cytometer FACS Scan (Becton-Dickinson).
To determine association rates, cells were harvested as above following serum starvation and peptide treatment, and were resuspended in 3 ml of serum-free Neurobasal (NB) medium containing […] (Invitrogen) and […] nonessential amino acids, prior to analysis on the flow cytometer. Cells were analysed for 30 seconds prior to the addition of 26 nM NGF-FITC, and then for 30 minutes in real time with an analysis rate of 200-300 events/sec.

HEK293 cells = assay: NGF-FITC binding by flow cytometry, non-transfected HEK293 cells
Experimental: as §1
as §2, with “1×10^7 cells/ml suspended in 500 μl of serum-free DMEM were incubated with 26 nM NGF-FITC on ice for 60 minutes before analysis.” left out

TrkA and p75^NTR = assay: Surface biotinylation of receptors in PC12 cells; assay type: cell-based; details: 1 μM peptide, with or without NGF
Experimental: FIG. 10: The juxtamembrane domain of p75^NTR increases the association of NGF to cells expressing TrkA. (A and B) Dose response graphs of the proportion (%) of PC12 cells with fluorescence intensity above background following treatment with 26 […] NGFFITC, a FITC-conjugated antibody to the extracellular domain of p75^NTR (A), or an antibody to TrkA (detected using an anti-rabbit Alexa 594 secondary) (B), after pretreatment with increasing concentrations of […] peptide. (n=3 experiments per data point; mean±SEM *p<0.05, **p<0.01) (C) Representative western blots (WB) of TrkA and p75^NTR present in streptavidin precipitates (surface biotin), or lysate flow through of PC12 cells that had been treated for 1 hour with NGF and/or c29 and scrambled (SC) peptide, prior to the surface proteins being labelled with biotin for 90 minutes on ice.

[1] = 26 nM NGF-FITC 60 minutes, + c29 c.f. TrkAK538A alone

For “KRWNSCKQNKQGANSRPVNQTPPPEGEKL (c29- Fragment of p75ICD) [29 amino acid peptide of the p75NTR juxtamembrane Chopper domain; delivered to cells linked to PTD4 or disulfide-linked carrier]”, the “neurite outgrowth (length)” value (PC12 cells; 1 ng/ml NGF, day 5, peptide 1 μM) was 20 μm, the “neurite length vs scrambled peptide or NGF alone” value (PC12 cells; 1 ng/ml and 10 ng/ml NGF, day 5, peptide 1 μM) was “significantly longer neurites” and the median neurite length (PC12 cells; 10 ng/ml NGF, day 5, peptide 1 μM) was 60 μm. The median neurite outgrowth (PC12 cells; 100 ng/ml NGF, day 5, peptide 1 μM, vs untreated cultures) was “no difference”, the neurite growth (PC12 cells; fragments incubated with PC12 cells and NGF, FIG. 16) was “stimulated neurite growth” and the “% of cell population with FITC above background” value (TrkAK538A; [1]) was 112.2 ± 5.3%. For the same sequence, the “Maximal fluorescence per cell of the population” value (TrkAK538A; [1]) was 128.0 ± 11.7%, the “Mean fluorescence per FITC-positive cell” value (TrkAK538A; [1]) was 125.0 ± 12.1% and the Median population fluorescence (TrkAK538A; [1]) was 140.5 ± 21.3%. For the same sequence, the “half time of NGF-FITC binding” value (TrkAK538A; 26 nM NGF-FITC, cells pre-treated with c29, average of 3 experiments) was 3.6 min, the “faster association rate than untreated cells” value (TrkAK538A; Hill-Slope association curve fit) was roughly 3 fold and the “total number of fluorescent cells, median, mean and maximal fluorescence” value (TrkAK538A; compared to control TrkAK538A-transfected cells) was “significantly increased”. The “mean fluorescence of the population following receptor saturation, higher than untreated” value (TrkAK538A; ~20 minutes after NGF addition) was “at least 20%”, the “fluorescence of nontransfected cells incubated with peptide and NGF-FITC” value (HEK293 cells) was “only background levels of fluorescence” and the “surface or total receptor levels of TrkA and p75^NTR” value (TrkA and p75^NTR) was “no significant difference”.

Source: US20150344535A1, “NEUROTROPHIN-TYROSINE KINASE RECEPTOR SIGNALING” (THE UNIVERSITY OF QUEENSLAND, priority 2012, published 2015)
